B1: 3G4: Mouse IgG3 kappa monoclonal antibody to PS and anionic phospholipids; binding mediated by β2-glycoprotein I (antibody, listed as Mus musculus)
VH: MGWTWIFILILSVTTGVHSEVQLQQSGPELEKPGASVKLSCKASGYSFTGYNMNWVKQSHGKSLEWIGHIDPYYGDTSYNQKFRGKATLTVDKSSSTAYMQLKSLTSEDSAVYYCVKGGYYGHWYFDVWGAGTTVTVSSATTTAPSVYPLVP
VL: MDMRAPAQILGFLLLLFPGTRCDIQMTQSPSSLSASLGERVSLTCRASQDIGSSLNWLQQGPDGTIKRLIYATSSLDSGVPKRFSGSRSGSDYSLTISSLESEDFVDYYCLQYVSSPPTFGAGTKLELKRADAAPTVFIFGRIP

Legend:
[1] = test system: bEnd.3 and ABAE cells; assay: Binding to cultured endothelial cells and inhibition by liposomes; type: cell-based, mouse, bovine; settings: quiescent conditions
Method: Endothelial cells were grown until they reached approximately 70% confluence. To induce PS exposure, cells were treated with H2O2 (200 μM) for 1 h at 37° C. Control and treated slides were washed with DPBS containing Ca^2+ and Mg^2+ and fixed with 0.25% of glutaraldehyde diluted in the same buffer. Excess aldehyde groups were quenched by incubation with 50 mM of NH4Cl for 5 min. To examine the effect of detergents and organic solvents on detection of phospholipids, some slides were pre-incubated with acetone (5 min) or with PBS containing 1% (v/v) Triton™ X-100.
Cells were washed with DPBS (containing Ca^2+, Mg^2+ and 0.2% (w/v) gelatin) and incubated with 1 μg/ml of biotinylated annexin V (Pharmingen, San Diego, Calif.) or with 1 μg/ml of 9D2 antibody. After 2 h of incubation, cells were washed with 0.2% gelatin buffer and were incubated with streptavidin-HRP (1:500 dilution). […] HRP activity was measured by adding O-phenylenediamine (0.5 mg/ml) and hydrogen peroxide (0.03% w/v) in citrate-phosphate buffer, pH 5.5. After 15 min, 100 μl of supernatant were transferred to 96 well plates, 100 μl of 0.18 M H2SO4 were added and the absorbance was measured at 490 nm. Alternatively, PS-positive cells were detected by addition of carbazole substrate, resulting in insoluble red-brownish precipitate. […]

[2] = test system: ABAE cells with exposed PS; assay: Live-cell binding assay on LPC-treated endothelial cells; type: cell-based, bovine; settings: DMEM+10% FBS
Summary of the method: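 ABAE cells cultured overnight were treated with 200 μM lysophosphatidylcholine to expose PS, then fixed in 4% paraformaldehyde and antibody binding was detected with biotin anti-mouse secondary plus FITC-streptavidin, with DAPI counterstain. Binding area is expressed as FITC/DAPI pixel ratio relative to basal binding, averaged over five 200× images (±SD).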

[3] = mouse, in vivo, iv
[4] = Anti-PS ELISA in OVA or sera of different species; type: binding
Method: The assay was performed as follows (see also, Ran et al., 2005, specifically incorporated herein by reference). PS-coated Immunlon 1B microtiter plates were blocked overnight in 1% OVA (w/v). […] Dilutions were performed in 1% OVA or 10% non-heat inactivated sera from cow, human, rat or mouse. […] All ELISA studies were performed at least three times.

[5] = test system: drug-resistant breast tumors; assay: 3G4 and cisplatin against drug-resistant breast tumors; type: in vivo, mouse; settings: treated after day 20
Description: Mice were inoculated with drug-resistant breast tumors and treated after day 20.

[6] = test system: Pan02 mouse pancreatic adenocarcinoma; assay: 3G4 and gemcitabine, pancreatic cancer; type: in vivo; settings: 3G4 100 μg, gemcitabine 3.5 mg; day 22
Method: Pan02 mouse pancreatic adenocarcinoma cells were injected into the pancreas of immunocompetent C57BL/6 mice. Treatment was started on day 5 after tumor cell injection. […] Gemcitabine is a pyrimidine anti-metabolite. The animals were sacrificed at day 22 after tumor cell injection, and the tumor weight determined.

[7] = test system: orthotopic MDA-MB-435 and MDA-MB-231 tumors; assay: Macrophage infiltration during 3G4 tumor treatment; type: in vivo, mouse; settings: 100 μg i.p. three times a week for 2-3 weeks
Method: Groups of 8-10 female SCID mice were injected subcutaneously with 2×10^7 L540 cells or orthotopically with 1×10^7 MDA-MB-435 or MDA-MB-231 cells. BALB/c mice were injected subcutaneously with 1×10^6 Meth A cells. Tumors were allowed to grow to an average diameter of 0.8-1 cm (L540), 0.6-0.7 cm (MDA-MB-435), 0.5-0.7 cm (MDA-MB-231), or <0.1 cm (Meth A). […] Animals were monitored three times a week for tumor size and body weight. Mice were sacrificed when tumors in control mice reached a diameter of 1.5-2 cm.

Molecule | binding to non-permeabilized monolayers [1] | binding to LPC-treated ABAE cells ([2]; 20 nM) | increase in area of binding upon LPC-treatment ([2]; 200 μM LPC) | Volume of distribution [3] [L/kg] | half-life in the α-phase of clearance [3] [h] | half-life in the β-phase of clearance [3] [h] | binding to PS ([4]; 10% mouse serum) | binding to PS ([4]; 10% rat and human serum) | binding to PS-coated microtiter plates ([4]; dilutions in 1% OVA, listed as 3G4 purified from SCM) | binding to PS-coated microtiter plates ([4]; dilutions in 1% OVA, listed as 3G4 purified from SFM) | binding to PS-coated microtiter plates ([4]; dilutions in 10% FBS) | binding to PS ([4]; hamster, ferret, guinea pig, rabbit and monkey serum) | anti-tumor response [5] | anti-tumor effect (tumor weight) [6] | leukocyte binding and infiltration [7]
Annexin V: High affinity PS binding ligand; natural ligand binding anionic phospholipids and PE | Neither 9D2 nor annexin V bound |  |  |  |  |  |  |  |  |  |  |  |  |  | 
B1 |  | bound to LPC-treated ABAE cells | greater than 500 fold | 0.1 | 3 | 120 | did not bind PS | bound PS | binds PS weakly | no longer binds PS | binds to PS-coated microtiter plates | bound PS | tumor growth was slowed | significant anti-tumor effect | caused mononuclear leukocytes to bind to the tumor vascular endothelium and infiltrate into the tumor interstitium

— patent US20160311886A1, “Constructs Binding to Phosphatidylserine and Their Use in Disease Treatment and Imaging” (Board of Regents, The University of Texas System, priority 2005, published 2016)
